{"source": "patent US6843989", "about": "(Seagen, dated 2005)", "molecules": {"B1": {"name": "anti-CD40 mAb G28-5 (antibody, V domains shown)", "VH": "DIQLQQSGPGLVKPSQSLSLTCSVTGYSITTNYNWNWIRQFPGNKLEWMGYIRYDGTSEYTPSLKNRVSITRDTSMNQFFLRLTSVTPEDTATYYCARLDYWGQGTSVTVSS", "VL": "DAVMTQNPLSLPVSLGDEASISCRSSQSLENSNGNTFLNWFFQKPGQSPQLLIYRVSNRFSGVPDRFSGSGSGTDFTLKISRVEAEDLGVYFCLQVTHVPYTFGGGTTLEIK"}, "B2": {"name": "monoclonal antibody S2C6 (antibody, V domains shown)", "VH": "EVQLQQSGPDLVKPGASVKISCKASGYSFTGYYIHWVKQSHGKSLEWIGRVIPNNGGTSYNQKFKGKAILTVDKSSSTAYMELRSLTSEDSAVYYCAREGIYWWGHGTTLTVSS", "VL": "DVVVTQTPLSLPVSLGAQASISCRSSQSLVHSNGNTFLHWYLQKPGQSPKLLIYTVSNRFSGVPDRFSGSGSGTDFTLKISRVEAEDLGVYFCSQTTHVPWTFGGGTKLEIQ"}}, "key": {"[1]": {"target": "T1, CD40 expressed on the surface of B cells (human, UniProt P25942 21-277)", "T1 sequence (P25942 21-277)": "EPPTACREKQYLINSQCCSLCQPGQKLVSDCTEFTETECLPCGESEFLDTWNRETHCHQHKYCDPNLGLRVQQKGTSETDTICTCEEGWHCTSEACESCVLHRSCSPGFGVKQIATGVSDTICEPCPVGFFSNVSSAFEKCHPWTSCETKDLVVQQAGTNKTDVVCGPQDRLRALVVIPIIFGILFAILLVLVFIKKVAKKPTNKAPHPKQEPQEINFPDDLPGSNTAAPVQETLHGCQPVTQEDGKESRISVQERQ", "test": "flow cytometry; soluble CD40L titrated on Ramos B cells"}, "[2]": {"target": "T1, CD40 expressed on the surface of B cells", "test": "cell-based or functional assay"}}, "data": [{"molecule": "recombinant human soluble CD40 ligand (CD154-muCD8), FITC-labeled (from UniProt P29965 47-261; P27548 47-260)", "values": [{"measurement": "saturation concentration", "setting": "[1]", "result": 10, "unit": "µg/mL"}]}, {"molecule": "B1", "values": [{"measurement": "B cell proliferation (3H-thymidine incorporation) with CD40L+ T cell titration and 30 ng/ml mAb, over the level with mAb alone", "setting": "[2]", "result": 1.3, "unit": "fold"}, {"measurement": "activation (proliferation) of primary human peripheral blood B cells with CD40L+ stimulator cells at 4:1 (B:T), against mAb alone", "setting": "[2]", "result": 2, "unit": "fold"}]}, {"molecule": "B2", "values": [{"measurement": "B cell proliferation (3H-thymidine incorporation) with CD40L+ T cell titration and 30 ng/ml mAb, over mAb-only stimulation", "setting": "[2]", "result": 3, "unit": "fold"}, {"measurement": "B cell proliferation of primary human peripheral blood B cells with CD40L+ stimulator cells at 4:1 (B:T), against mAb alone", "setting": "[2]", "result": 16.2, "unit": "fold"}]}]}
